# Assay results from patent publication US20130323786A1 (Biogen, published 2013).
# Where a chain is given by its changes, count along the chain named. In names and notes the source's numbering stands.
# T1: LINGO-Fc (human, UniProt Q96FE5 40-538, limits assumed)
# T1 construct: not shown: Fc part
# T1 sequence: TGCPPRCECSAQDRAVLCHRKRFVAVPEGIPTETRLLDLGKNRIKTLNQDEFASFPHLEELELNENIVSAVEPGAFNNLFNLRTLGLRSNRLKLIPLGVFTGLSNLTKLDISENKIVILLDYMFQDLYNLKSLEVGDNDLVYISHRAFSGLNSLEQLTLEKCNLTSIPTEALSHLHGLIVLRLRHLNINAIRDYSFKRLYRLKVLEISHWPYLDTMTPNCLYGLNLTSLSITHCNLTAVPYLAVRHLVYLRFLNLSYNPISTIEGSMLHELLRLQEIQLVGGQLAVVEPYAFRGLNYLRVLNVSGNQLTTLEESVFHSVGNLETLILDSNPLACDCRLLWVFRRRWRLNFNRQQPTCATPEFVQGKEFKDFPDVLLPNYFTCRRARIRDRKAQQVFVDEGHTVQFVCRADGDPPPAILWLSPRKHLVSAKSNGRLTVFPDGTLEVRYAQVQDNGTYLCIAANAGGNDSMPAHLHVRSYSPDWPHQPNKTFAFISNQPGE
# T2: human Fc receptor CD32b-GST fusion protein (human, UniProt P31994 43-217)
# T2 construct: not shown: GST
# T2 sequence (looked up): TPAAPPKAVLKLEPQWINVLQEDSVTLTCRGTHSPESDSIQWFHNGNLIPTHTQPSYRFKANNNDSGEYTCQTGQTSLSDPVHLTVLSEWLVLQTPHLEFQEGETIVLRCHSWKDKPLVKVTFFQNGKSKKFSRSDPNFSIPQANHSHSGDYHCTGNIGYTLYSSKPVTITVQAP
# T3: human Fc receptor CD32a-GST fusion protein (human, UniProt P12318 34-217)
# T3 construct: not shown: GST
# T3 sequence (looked up): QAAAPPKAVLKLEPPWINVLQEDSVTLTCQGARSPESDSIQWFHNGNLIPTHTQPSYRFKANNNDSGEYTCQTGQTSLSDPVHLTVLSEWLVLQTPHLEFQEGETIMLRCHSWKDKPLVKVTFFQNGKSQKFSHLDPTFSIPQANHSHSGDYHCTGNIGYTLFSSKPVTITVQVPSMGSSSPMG
# B1: Li33 variant W104L (SEQ ID NO:177) (antibody, V domains shown)
# VH: EVQLLESGGGLVQPGGSLRLSCAASGFTFSIYPMFWVRQAPGKGLEWVSWIGPSGGITKYADSVKGRFTISRDNSKNTLYLQMNSLRAEDTATYYCAREGHNDLYFDLWGRGTLVTVSS
# VL: DIQMTQSPGTLSLSPGERATLSCRASQSVSSYLAWYQQKPGQAPRLLIYDASNRATGIPARFSGSGSGTEFTLTISSLQSEDFAVYYCQQYDKWPLTFGGGTKVEIKR
# notes: unchanged chain from WT Li33
# B2: Li33 variant W104Q (SEQ ID NO:187) (antibody, V domains shown)
# VH: B1 VH with L104Q
# VL: B1 VL
# notes: unchanged chain from WT Li33
# B3: Li33 variant W104Q (SEQ ID NO:158) (antibody, V domains shown)
# VH: B1 VH with L104Q
# VL: B1 VL
# notes: unchanged chain from WT Li33
# B4: Li33 variant W104T (SEQ ID NO:178) (antibody, V domains shown)
# VH: B1 VH with L104T
# VL: B1 VL
# notes: unchanged chain from WT Li33
# B5: Li33 variant W104V (SEQ ID NO:155) (antibody, V domains shown)
# VH: B1 VH with L104V
# VL: B1 VL
# notes: unchanged chain from WT Li33
# B6: Li33 variant W104M (SEQ ID NO:176) (antibody, V domains shown)
# VH: B1 VH with L104M
# VL: B1 VL
# notes: unchanged chain from WT Li33
# B7: Li33 variant W104S (SEQ ID NO:157) (antibody, V domains shown)
# VH: B1 VH with L104S
# VL: B1 VL
# notes: unchanged chain from WT Li33
# B8: Li81 (agly) (antibody, human IgG1)
# heavy: not shown
# VL: DIQMTQSPATLSLSPGERATLSCRASQSVSSYLAWYQQKPGQAPRLLIYDASNRATGIPARFSGSGSGTDFTLTISSLEPEDFAVYYCQQRSNWPMYTFGQGTKLEIK
# notes: Aglycosylated fully human IgG1 (single T to A change in the heavy chain); also called Li81 Ig1agly; Li81 Mab; copies: 2 + 2
# Legend:
# LINGO-Fc [1] = target: T1, LINGO-Fc; assay: direct ELISA on LINGO-Fc; OD450 at saturation relative to Li33;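 also: binding to plate-coated LINGO-Fc read by OD450, with the value at maximal saturation divided by the corresponding Li33 value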
# LINGO-Fc [2] = target: T1, LINGO-Fc; assay: direct ELISA on LINGO-Fc; half-maximal concentration relative to Li33;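 also: direct binding ELISA on plates coated with LINGO-Fc, concentration giving half of saturating binding, expressed as a ratio to the same value for the comparator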
# [3] = target: T2, human Fc receptor CD32b-GST fusion …; assay: ALPHA competition vs biotinylated wild-type IgG1; relative to wt
# [4] = target: T3, human Fc receptor CD32a-GST fusion …; assay: as above
# [5] = target: T4, human Fc receptor CD16-GST fusion protein (human, UniProt P08637 17-208); assay: as above
# T4 construct: not shown: GST
# [6] = target: T5, human Fc receptor CD64-GST fusion protein (human, UniProt P12314 16-292, limits assumed); assay: as above
# T5 construct: not shown: GST
# [7] = target: T2, human Fc receptor CD32b-GST fusion …; assay: ALPHA competition vs biotinylated wild-type IgG1; receptor-GST
# [8] = target: T3, human Fc receptor CD32a-GST fusion …; assay: as above
# [9] = target: T4, human Fc receptor CD16-GST fusion …; assay: as above
binder,measurement,setting,value
B1,Plateau Ratio,LINGO-Fc [1],0.69 ratio
same,ELISA Ratio,LINGO-Fc [2],2.5 ratio
B2,Plateau Ratio,LINGO-Fc [1],0.67 ratio
same,ELISA Ratio,LINGO-Fc [2],1.1 ratio
B3,Plateau Ratio,LINGO-Fc [1],0.91 ratio
same,ELISA Ratio,LINGO-Fc [2],2.4 ratio
B4,Plateau Ratio,LINGO-Fc [1],0.33 ratio
same,ELISA Ratio,LINGO-Fc [2],3.5 ratio
B5,Plateau Ratio,LINGO-Fc [1],0.94 ratio
same,ELISA Ratio,LINGO-Fc [2],2.8 ratio
B6,Plateau Ratio,LINGO-Fc [1],0.88 ratio
same,ELISA Ratio,LINGO-Fc [2],3.8 ratio
B7,Plateau Ratio,LINGO-Fc [1],0.85 ratio
same,ELISA Ratio,LINGO-Fc [2],2.7 ratio
B8,fold decrease from wt,[3],15 fold
same,fold decrease from wt,[4],60 fold
same,fold decrease from wt,[5],50 fold
same,fold decrease from wt,[6],> 100 fold
same,IC50,[7],350 µg/mL
same,IC50,[8],365 µg/mL
same,IC50,[9],179 µg/mL
